Non-standard residues stand in square brackets, D forms with d.
These substances were tested against T1, 20S CP (assay: TAS-1 biochemical assay (20S CP stimulation)). Details: TAS-1 assay.
T1 construct: purchased South Bay
Experimental: Each compound was initially tested at 10 μM. Each well contained […] of 11.4 μM TAS-1 solution in Tris HCl (50 mM, pH 7.4) along with 5 nM of 20 sCP (South Bay). 1 μL of the test compound, control, or DMSO was added to the desired well to obtain a final DMSO concentration of 2%, with the total volume being 50 μL. Compounds were tested in three replicates that each had technical triplicates. The fluorescence was recorded using a SynergyNeo 2, where the excitation and emission was set to 335 nm and 493 nm. The plate reader was heated to 37° C. The fluorescence was recorded every 90 seconds over a 1-hour period. A simple linear regression was performed on the data plotted against time to obtain the rate of hydrolysis of TAS-1 by the 20S CP. The data was then normalized against DMSO to get the percent stimulation.
With “KLFFRA [SEQ ID NO: 7] (cyclo(K[dL]F[dF]R[dA]); SMILES CC(C)C[C@H]1NC(=O)[C@H](CCCCN)NC(=O)[C@@H](C)NC(=O)[C@H](CCCNC(=N)N)NC(=O)[C@@H](Cc2ccccc2)NC(=O)[C@H](Cc2ccccc2)NC1=O) [CyPPS7, cyclic peptide; AA1 Lys, AA2 D-Leu, AA3 Phe, AA4 D-Phe, AA5 Arg, AA6 D-Ala]” the “20S CP stimulatory activity (in words, SAR compared to CyPPS1)” value was “decreased activity”.
“TAFFRA [SEQ ID NO: 3] (cyclo(T[dA]F[dF]R[dA]); SMILES C[C@H]1NC(=O)[C@H](CCCNC(=N)N)NC(=O)[C@@H](Cc2ccccc2)NC(=O)[C@H](Cc2ccccc2)NC(=O)[C@@H](C)NC(=O)[C@H]([C@@H](C)O)NC1=O) [CyPPS3, cyclic peptide; AA1 Thr, AA2 D-Ala, AA3 Phe, AA4 D-Phe, AA5 Arg, AA6 D-Ala]” was tested, and the “20S CP stimulatory activity (in words, SAR compared to CyPPS1)” value was “greatest loss of stimulatory activity”.
“TDFFRA [SEQ ID NO: 10] (cyclo(T[dD]F[dF]R[dA]); SMILES C[C@H]1NC(=O)[C@H](CCCNC(=N)N)NC(=O)[C@@H](Cc2ccccc2)NC(=O)[C@H](Cc2ccccc2)NC(=O)[C@@H](CC(=O)O)NC(=O)[C@H]([C@@H](C)O)NC1=O) [CyPPS10, cyclic peptide; AA1 Thr, AA2 D-Asp, AA3 Phe, AA4 D-Phe, AA5 Arg, AA6 D-Ala]” was tested, and the “20S CP stimulatory activity (in words, SAR compared to CyPPS1)” value was “decreased activity”.
For “TIFFRA [SEQ ID NO: 12] (cyclo(T[dI]F[dF]R[dA]); SMILES CC[C@@H](C)[C@H]1NC(=O)[C@H]([C@@H](C)O)NC(=O)[C@@H](C)NC(=O)[C@H](CCCNC(=N)N)NC(=O)[C@@H](Cc2ccccc2)NC(=O)[C@H](Cc2ccccc2)NC1=O) [CyPPS12, cyclic peptide; AA1 Thr, AA2 D-Ile, AA3 Phe, AA4 D-Phe, AA5 Arg, AA6 D-Ala]”, the “20S CP stimulatory activity (in words, SAR compared to CyPPS1)” value was “lack of activity”.
For “TKFFRA [SEQ ID NO: 11] (cyclo(T[dK]F[dF]R[dA]); SMILES C[C@H]1NC(=O)[C@H](CCCNC(=N)N)NC(=O)[C@@H](Cc2ccccc2)NC(=O)[C@H](Cc2ccccc2)NC(=O)[C@@H](CCCCN)NC(=O)[C@H]([C@@H](C)O)NC1=O) [CyPPS11, cyclic peptide; AA1 Thr, AA2 D-Lys, AA3 Phe, AA4 D-Phe, AA5 Arg, AA6 D-Ala]”, the “20S CP stimulatory activity (in words, SAR compared to CyPPS1)” value was “decreased activity”.
In the case of “TLFARA [SEQ ID NO: 5] (cyclo(T[dL]F[dA]R[dA]); SMILES CC(C)C[C@H]1NC(=O)[C@H]([C@@H](C)O)NC(=O)[C@@H](C)NC(=O)[C@H](CCCNC(=N)N)NC(=O)[C@@H](C)NC(=O)[C@H](Cc2ccccc2)NC1=O) [CyPPS5, cyclic peptide; AA1 Thr, AA2 D-Leu, AA3 Phe, AA4 D-Ala, AA5 Arg, AA6 D-Ala]”, the “20S CP stimulatory activity (in words, SAR compared to CyPPS1)” value is reported as “greatest loss of stimulatory activity”.
With “TLFFAR [SEQ ID NO: 6] (cyclo(T[dL]F[dF]A[dR]); SMILES CC(C)C[C@H]1NC(=O)[C@H]([C@@H](C)O)NC(=O)[C@@H](CCCNC(=N)N)NC(=O)[C@H](C)NC(=O)[C@@H](Cc2ccccc2)NC(=O)[C@H](Cc2ccccc2)NC1=O) [CyPPS6, cyclic peptide; AA1 Thr, AA2 D-Leu, AA3 Phe, AA4 D-Phe, AA5 Ala, AA6 D-Arg]” the “20S CP stimulatory activity (in words, SAR compared to CyPPS1)” value was “stimulatory activity was preserved”.
With “TLFFRS [SEQ ID NO: 22] (cyclo(T[dL]F[dF]R[dS]); SMILES CC(C)C[C@H]1NC(=O)[C@H]([C@@H](C)O)NC(=O)[C@@H](CO)NC(=O)[C@H](CCCNC(=N)N)NC(=O)[C@@H](Cc2ccccc2)NC(=O)[C@H](Cc2ccccc2)NC1=O) [CyPPS22, cyclic peptide; AA1 Thr, AA2 D-Leu, AA3 Phe, AA4 D-Phe, AA5 Arg, AA6 D-Ser]” the “20S CP stimulatory activity (in words, SAR compared to CyPPS1)” value was “maintained stimulatory activity”.
